Reference: publication doi:10.1101/2024.10.25.620210, “The plastid-encoded RNA polymerase structures a logistic chain for light-induced photosynthesis” (bioRxiv, 2024)

Target: T1, β’’ subunit of the Sinapis alba plastid-encoded RNA polymerase (SaPEP) (Sinapis alba, UniProt Q9THV5 1-1384)
T1 construct: source: native, in the PEP purified from Sinapis alba cotyledon chloroplasts (heparin, MonoQ, Superose 6)
T1 sequence (looked up): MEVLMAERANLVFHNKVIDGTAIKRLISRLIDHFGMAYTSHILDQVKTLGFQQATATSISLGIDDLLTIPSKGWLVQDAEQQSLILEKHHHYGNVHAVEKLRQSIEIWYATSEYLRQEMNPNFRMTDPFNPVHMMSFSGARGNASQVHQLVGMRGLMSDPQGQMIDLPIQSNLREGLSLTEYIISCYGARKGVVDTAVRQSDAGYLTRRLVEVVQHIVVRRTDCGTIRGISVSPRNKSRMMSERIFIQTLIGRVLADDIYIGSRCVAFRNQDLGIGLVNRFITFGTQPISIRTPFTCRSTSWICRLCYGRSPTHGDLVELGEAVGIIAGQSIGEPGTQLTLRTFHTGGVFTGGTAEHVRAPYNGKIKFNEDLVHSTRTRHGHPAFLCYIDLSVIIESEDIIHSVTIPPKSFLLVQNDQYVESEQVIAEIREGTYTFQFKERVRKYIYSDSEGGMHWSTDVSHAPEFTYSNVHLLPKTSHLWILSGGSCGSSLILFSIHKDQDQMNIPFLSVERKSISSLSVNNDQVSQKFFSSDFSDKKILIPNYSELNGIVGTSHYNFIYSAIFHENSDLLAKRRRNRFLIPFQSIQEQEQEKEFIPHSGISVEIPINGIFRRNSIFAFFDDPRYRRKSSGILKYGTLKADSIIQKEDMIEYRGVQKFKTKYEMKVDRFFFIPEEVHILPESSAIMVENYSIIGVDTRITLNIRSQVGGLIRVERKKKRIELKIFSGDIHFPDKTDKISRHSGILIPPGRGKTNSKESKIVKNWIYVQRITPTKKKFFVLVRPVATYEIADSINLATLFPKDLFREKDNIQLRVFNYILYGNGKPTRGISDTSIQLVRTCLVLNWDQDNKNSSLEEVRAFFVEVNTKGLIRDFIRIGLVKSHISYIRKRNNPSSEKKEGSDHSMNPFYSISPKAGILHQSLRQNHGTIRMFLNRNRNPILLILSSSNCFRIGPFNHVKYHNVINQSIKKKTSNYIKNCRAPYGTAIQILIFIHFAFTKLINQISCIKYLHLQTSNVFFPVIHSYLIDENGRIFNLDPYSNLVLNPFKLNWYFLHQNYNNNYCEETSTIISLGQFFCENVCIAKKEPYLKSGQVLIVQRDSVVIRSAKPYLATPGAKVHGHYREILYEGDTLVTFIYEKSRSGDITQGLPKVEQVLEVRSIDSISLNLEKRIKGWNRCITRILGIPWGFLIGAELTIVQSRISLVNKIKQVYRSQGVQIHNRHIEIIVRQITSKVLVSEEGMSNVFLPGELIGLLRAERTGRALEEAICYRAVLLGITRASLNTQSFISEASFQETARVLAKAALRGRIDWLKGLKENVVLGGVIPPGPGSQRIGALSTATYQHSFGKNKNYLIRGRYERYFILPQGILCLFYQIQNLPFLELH
Test: cryo-EM structure; native 21-subunit SaPEP purified from S. alba cotyledon chloroplasts; graphene oxide grids; consensus map 3.0 Å, multibody and composite maps; open conformation
Conditions: both partners purified

binding result: binds
B1: β subunit of the Sinapis alba plastid-encoded RNA polymerase (SaPEP) (natural protein, UniProt P46818 1-1078, looked up)
chain: MINAKKMLGDGKEGTSTIPGFNQIQFEGFYRFIDQGLIEELSKFPKIEDIDHEIEFQLFVETYQLVEPLIKERDAVYESLTYSSELYVSAGLIWKTNRNMQEQRIFIGNIPLMNSLGTSIVNGIYRVVINQILQSPGIYYQSELDHNGISVYTGTIISDWGGRLELEIDKKARIWARVSRKQKISILVLSSAMGSNLREILENVCYPEIFLSFLTDKEKKKIGSKENAILEFYQQFSCVGGDPIFSESLCKELQKKFFHQRCELGRIGRRNINWRLNLNIPQNNIFLLPRDILAAADHLIGMKFGMGTLDDMNHLKNKRIRSVADLLQDQLGLALARLENVVKGTIGGAIRHKLIPPTQNLVTSTPLTTTYESFFGFHPLSQVLDRTNPLTQIVHGRKLSYLGPGGLTGRTANFRIRDIHPSHYGRICPIDTSEGINVGLIGSLSIHARIGDWGSLESPFYELVEKSKKAQIRMLFLSPSQDEYYMIAAGNSLALNRGIQEEQVVPARYRQEFLTIAWEEVHLRSIFPFQYFSIGASLIPFIEHNDANRALMSSNMQRQAVPLSRSEKCIVGTGLERQVALDSGVPAIAEHEGKILYTDTEKIILSGNENTLSIPLIMYQRSNKNTCMHQKPQVPRGKCIKKGQILADGAATVGGELALGKNVLVAYMPWEGYNFEDAVLISECLVYGDIYTSFHIRKYEIQTHVTTQGPERITKEIPHLEGRLLRNLDKNGIVMLGSWVETGDILVGKLTPQVAKESSYAPEDRLLRAILGIQVSTSKETCLKLPIGGRGRVIDVRWVQKKGGSSYNPEIIRVYISQKREIKVGDKVAGRHGNKGIISKILPRQDMPYLQDGRPVDMVFNPLGVPSRMNVGQIFECSLGLAGSLLDRHYRIAPFDERYEQEASRKLVFSELYEASKQTANPWVFEPEYPGKSRIFDGRTGDPFEQPVIIGKPYILKLIHQVDDKIHGRSSGHYALVTQQPLRGRSKQGGQRVGEMEVWALEGFGVAHILQEMLTYKSDHIRARQEVLGTTIIGGTIPKPEDAPESFRLLVRELRSLALELNHFLVSEKNFQINRKEV
notes: plastid-encoded β subunit of the S. alba PEP catalytic core; source: native, in the PEP purified from Sinapis alba cotyledon chloroplasts (heparin, MonoQ, Superose 6)
